Laboratory results as given in the supplement of paper PMC10065799, “High-throughput profiling of sequence recognition by tyrosine kinases and SH2 domains using bacterial peptide display” (eLife, 2023).

These sequences were tested against SHP2-C SH2 (assay: SH2 binding enrichment of the phosphorylated peptide, bacterial display (enrichment ratio); higher = better substrate or ligand; peptides without Tyr show the background).
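For SH2 binding enrichment of the phosphorylated peptide, bacterial display in this document: peptide library displayed on the E. coli surface as eCPX fusions, selected cells deep-sequenced, score is each peptide's frequency after selection divided by its frequency in the input.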
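For phosphorylation enrichment, bacterial display in this document: 11-residue human phosphosite peptides and single-mutation variants displayed on the E. coli surface, counted by deep sequencing, each peptide's frequency after selection divided by its frequency in the unselected input library; frequency after pTyr selection over input frequency; kinase dosed for 20-30% of maximal phosphorylation in three min.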

Compared with NETNKYQISVN [FGB_Y368_A365T], KLCHLYQDHMQ [WNT5A_Y86] is higher in SH2 binding enrichment: 0.581 for the first, 1.17 for the second.

First: KLKPIYFHTQG [AR_Y916_V912L]
Second: SDYSSYARTSI [TERT_Y949]
The SH2 binding enrichment of the first is higher: 2.12 for the first, 0.637 for the second.

First: EKGEEYGGGGG [TUBA1A_Y451_E447K]
Second: IQTDGYRAPEA [UHMK1_Y197]
The SH2 binding enrichment of the first is higher: 0.729 for the first, 0.727 for the second.

First: PLRPDYQEPSR [DDR2_Y481]
Second: LTPVKYLLSAT [GSDMC_Y26]
The SH2 binding enrichment of the first is lower: 0.663 for the first, 1.05 for the second.

Compared with KSAAIYNPVIY [RHO_Y301], GIVEDYRPTFY [ACVRL1_Y421_P424T] is higher in SH2 binding enrichment: 0.581 for the first, 0.657 for the second.

Going from TSNQEYLFLSM [FGFR1_Y766_D768Y_YF] to SGFESYGSSSY [RPA2_Y9], the SH2 binding enrichment rises from 0.563 to 0.708.

Going from DNPAKYFILES [DPP10_Y512] to NPPGMYPVTGP [LPP_Y346], the SH2 binding enrichment falls from 0.749 to 0.547.

Compared with TEDAEYDVQSK [PTCHD3_Y335_P333A], FDDIAYIQKTL [PIK3CA_Y1021_R1023Q] is higher in SH2 binding enrichment: 0.698 for the first, 0.939 for the second.

Compared with PSAELYSFALP [PDGFRB_Y716_N718Y_YF], EQQRAYLEGTC [HLA-C_Y183_L180Q] is higher in SH2 binding enrichment: 0.631 for the first, 0.758 for the second.

Compared with MIRSAYALRGL [CPS1_Y590_G593R], IGMIIYFARKA [VCAM1_Y718] is higher in SH2 binding enrichment: 0.6 for the first, 1.43 for the second.

First: CGQDPCIRELG [UROS_Y19_Y19C]
Second: SVTCTYSPALD [TP53_Y126_N131D]
The SH2 binding enrichment of the first is higher: 1.06 for the first, 0.532 for the second.

Compared with RGGDSYGGPPR [RBMX_Y190_R187G], WHHTFYNELRV [ACTA1_Y93] is higher in SH2 binding enrichment: 0.798 for the first, 1.52 for the second.

Going from SSREGYVSHHN [FAM83B_Y433] to ASTHIYQIMNH [ITK_Y588_V587I], the SH2 binding enrichment rises from 0.659 to 1.41.

First: SSQTVYQRVEG [TFR2_Y23]
Second: PEADKYCLTYA [FGG_Y300_R301C]
The SH2 binding enrichment of the first is higher: 2.4 for the first, 0.778 for the second.

First: QSMEPYTKQQL [STAT3_Y640_V637M]
Second: CTTIHYNYTCN [TP53_Y234_M237T]
The SH2 binding enrichment of the first is lower: 0.851 for the first, 1.86 for the second.

Compared with LKVQVYILGRE [ASS1_Y359_G356V], ANNQRYAFMPL [TMEM87B_Y460] is lower in SH2 binding enrichment: 0.968 for the first, 0.84 for the second.

SVVVPYEPPEF [TP53_Y220_V225F] was tested, and the SH2 binding enrichment was 0.658.

The sequences below were run against c-Src SH2 in the same assay as above.

First: NETNKYQISVN [FGB_Y368_A365T]
Second: KLCHLYQDHMQ [WNT5A_Y86]
The SH2 binding enrichment of the first is lower: 0.432 for the first, 1.4 for the second.

Going from KLKPIYFHTQG [AR_Y916_V912L] to SDYSSYARTSI [TERT_Y949], the SH2 binding enrichment falls from 1.95 to 0.535.

First: EKGEEYGGGGG [TUBA1A_Y451_E447K]
Second: IQTDGYRAPEA [UHMK1_Y197]
The SH2 binding enrichment of the first is higher: 0.51 for the first, 0.505 for the second.

First: PLRPDYQEPSR [DDR2_Y481]
Second: LTPVKYLLSAT [GSDMC_Y26]
The SH2 binding enrichment of the first is higher: 0.786 for the first, 0.537 for the second.

Compared with KSAAIYNPVIY [RHO_Y301], GIVEDYRPTFY [ACVRL1_Y421_P424T] is lower in SH2 binding enrichment: 1.02 for the first, 0.763 for the second.

Compared with TSNQEYLFLSM [FGFR1_Y766_D768Y_YF], SGFESYGSSSY [RPA2_Y9] is higher in SH2 binding enrichment: 0.358 for the first, 0.541 for the second.

Going from DNPAKYFILES [DPP10_Y512] to NPPGMYPVTGP [LPP_Y346], the SH2 binding enrichment falls from 0.834 to 0.418.

First: TEDAEYDVQSK [PTCHD3_Y335_P333A]
Second: FDDIAYIQKTL [PIK3CA_Y1021_R1023Q]
The SH2 binding enrichment of the first is higher: 0.644 for the first, 0.626 for the second.

Going from PSAELYSFALP [PDGFRB_Y716_N718Y_YF] to EQQRAYLEGTC [HLA-C_Y183_L180Q], the SH2 binding enrichment rises from 0.546 to 0.69.

First: MIRSAYALRGL [CPS1_Y590_G593R]
Second: IGMIIYFARKA [VCAM1_Y718]
The SH2 binding enrichment of the first is lower: 0.408 for the first, 1.03 for the second.

Going from CGQDPCIRELG [UROS_Y19_Y19C] to SVTCTYSPALD [TP53_Y126_N131D], the SH2 binding enrichment falls from 0.762 to 0.599.

Going from RGGDSYGGPPR [RBMX_Y190_R187G] to WHHTFYNELRV [ACTA1_Y93], the SH2 binding enrichment rises from 0.75 to 1.9.

First: SSREGYVSHHN [FAM83B_Y433]
Second: ASTHIYQIMNH [ITK_Y588_V587I]
The SH2 binding enrichment of the first is lower: 0.449 for the first, 5.44 for the second.

First: SSQTVYQRVEG [TFR2_Y23]
Second: PEADKYCLTYA [FGG_Y300_R301C]
The SH2 binding enrichment of the first is higher: 2.23 for the first, 0.687 for the second.

Going from QSMEPYTKQQL [STAT3_Y640_V637M] to CTTIHYNYTCN [TP53_Y234_M237T], the SH2 binding enrichment rises from 0.499 to 3.29.

Compared with LKVQVYILGRE [ASS1_Y359_G356V], ANNQRYAFMPL [TMEM87B_Y460] is higher in SH2 binding enrichment: 0.804 for the first, 1.42 for the second.

SVVVPYEPPEF [TP53_Y220_V225F] showed an SH2 binding enrichment of 0.987.

Each sequence was assayed against Grb2 SH2 (UniProt P62993) in the same assay as above.
Grb2 SH2, sequence (P62993 whole entry, looked up): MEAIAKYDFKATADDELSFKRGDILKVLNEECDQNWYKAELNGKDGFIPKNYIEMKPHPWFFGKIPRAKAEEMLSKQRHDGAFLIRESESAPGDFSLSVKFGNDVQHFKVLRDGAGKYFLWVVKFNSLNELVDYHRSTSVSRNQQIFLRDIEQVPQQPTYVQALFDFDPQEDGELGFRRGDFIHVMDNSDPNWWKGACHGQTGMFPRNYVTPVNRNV

First: NETNKYQISVN [FGB_Y368_A365T]
Second: KLCHLYQDHMQ [WNT5A_Y86]
The SH2 binding enrichment of the first is lower: 0.889 for the first, 1.08 for the second.

Compared with KLKPIYFHTQG [AR_Y916_V912L], SDYSSYARTSI [TERT_Y949] is lower in SH2 binding enrichment: 1.78 for the first, 0.725 for the second.

Compared with EKGEEYGGGGG [TUBA1A_Y451_E447K], IQTDGYRAPEA [UHMK1_Y197] is lower in SH2 binding enrichment: 0.911 for the first, 0.763 for the second.

Going from PLRPDYQEPSR [DDR2_Y481] to LTPVKYLLSAT [GSDMC_Y26], the SH2 binding enrichment rises from 1.02 to 1.08.

First: KSAAIYNPVIY [RHO_Y301]
Second: GIVEDYRPTFY [ACVRL1_Y421_P424T]
The SH2 binding enrichment of the first is higher: 1.1 for the first, 0.875 for the second.

Compared with TSNQEYLFLSM [FGFR1_Y766_D768Y_YF], SGFESYGSSSY [RPA2_Y9] is lower in SH2 binding enrichment: 0.877 for the first, 0.672 for the second.

Going from DNPAKYFILES [DPP10_Y512] to NPPGMYPVTGP [LPP_Y346], the SH2 binding enrichment falls from 0.832 to 0.638.

First: TEDAEYDVQSK [PTCHD3_Y335_P333A]
Second: FDDIAYIQKTL [PIK3CA_Y1021_R1023Q]
The SH2 binding enrichment of the first is higher: 1.01 for the first, 0.939 for the second.

First: PSAELYSFALP [PDGFRB_Y716_N718Y_YF]
Second: EQQRAYLEGTC [HLA-C_Y183_L180Q]
The SH2 binding enrichment of the first is lower: 0.911 for the first, 0.916 for the second.

First: MIRSAYALRGL [CPS1_Y590_G593R]
Second: IGMIIYFARKA [VCAM1_Y718]
The SH2 binding enrichment of the first is lower: 0.731 for the first, 2.08 for the second.

First: CGQDPCIRELG [UROS_Y19_Y19C]
Second: SVTCTYSPALD [TP53_Y126_N131D]
The SH2 binding enrichment of the first is higher: 1.03 for the first, 1.01 for the second.

Going from RGGDSYGGPPR [RBMX_Y190_R187G] to WHHTFYNELRV [ACTA1_Y93], the SH2 binding enrichment falls from 1.96 to 1.2.

Compared with SSREGYVSHHN [FAM83B_Y433], ASTHIYQIMNH [ITK_Y588_V587I] is higher in SH2 binding enrichment: 0.76 for the first, 0.923 for the second.

First: SSQTVYQRVEG [TFR2_Y23]
Second: PEADKYCLTYA [FGG_Y300_R301C]
The SH2 binding enrichment of the first is lower: 0.853 for the first, 0.882 for the second.

First: QSMEPYTKQQL [STAT3_Y640_V637M]
Second: CTTIHYNYTCN [TP53_Y234_M237T]
The SH2 binding enrichment of the first is lower: 0.887 for the first, 1.47 for the second.

Compared with LKVQVYILGRE [ASS1_Y359_G356V], ANNQRYAFMPL [TMEM87B_Y460] is lower in SH2 binding enrichment: 1.46 for the first, 0.821 for the second.

SVVVPYEPPEF [TP53_Y220_V225F] was tested, and the SH2 binding enrichment was 0.88.

Each sequence was assayed against Jak2 (UniProt O60674) (assay: phosphorylation enrichment, bacterial display (enrichment ratio); higher = better substrate or ligand; peptides without Tyr show the background).
Jak2, sequence (O60674 whole entry, looked up): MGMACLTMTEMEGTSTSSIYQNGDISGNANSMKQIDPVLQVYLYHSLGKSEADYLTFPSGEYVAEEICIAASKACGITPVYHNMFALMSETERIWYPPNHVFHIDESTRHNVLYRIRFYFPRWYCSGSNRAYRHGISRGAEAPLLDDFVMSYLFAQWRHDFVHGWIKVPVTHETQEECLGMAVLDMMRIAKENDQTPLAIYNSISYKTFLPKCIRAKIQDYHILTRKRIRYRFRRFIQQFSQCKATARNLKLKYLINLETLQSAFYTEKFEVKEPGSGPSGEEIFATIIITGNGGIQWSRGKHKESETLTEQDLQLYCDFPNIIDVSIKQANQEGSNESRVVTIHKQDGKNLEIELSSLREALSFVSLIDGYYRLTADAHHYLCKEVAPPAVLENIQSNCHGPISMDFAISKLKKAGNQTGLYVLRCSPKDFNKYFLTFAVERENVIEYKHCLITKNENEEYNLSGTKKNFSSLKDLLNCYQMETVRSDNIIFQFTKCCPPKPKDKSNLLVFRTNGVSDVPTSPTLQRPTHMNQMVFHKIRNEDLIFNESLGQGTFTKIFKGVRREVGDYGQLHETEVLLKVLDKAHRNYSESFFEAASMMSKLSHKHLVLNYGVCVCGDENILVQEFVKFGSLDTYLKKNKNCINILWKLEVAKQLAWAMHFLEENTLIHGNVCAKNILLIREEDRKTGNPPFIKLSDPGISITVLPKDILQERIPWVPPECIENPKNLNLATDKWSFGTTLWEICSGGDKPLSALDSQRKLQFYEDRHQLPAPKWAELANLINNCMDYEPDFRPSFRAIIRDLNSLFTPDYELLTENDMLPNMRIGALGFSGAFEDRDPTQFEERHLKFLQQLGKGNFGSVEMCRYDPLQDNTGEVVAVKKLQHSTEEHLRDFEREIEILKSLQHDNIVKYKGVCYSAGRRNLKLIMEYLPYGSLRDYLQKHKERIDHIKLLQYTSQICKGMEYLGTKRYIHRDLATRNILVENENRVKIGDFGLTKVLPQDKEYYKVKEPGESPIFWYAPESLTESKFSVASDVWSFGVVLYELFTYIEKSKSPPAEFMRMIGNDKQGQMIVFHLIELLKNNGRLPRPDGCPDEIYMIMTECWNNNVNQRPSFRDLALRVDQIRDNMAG

First: NETNKYQISVN [FGB_Y368_A365T]
Second: KLCHLYQDHMQ [WNT5A_Y86]
The phosphorylation enrichment of the first is higher: 0.684 for the first, 0.549 for the second.

Going from KLKPIYFHTQG [AR_Y916_V912L] to SDYSSYARTSI [TERT_Y949], the phosphorylation enrichment rises from 0.513 to 0.725.

Compared with EKGEEYGGGGG [TUBA1A_Y451_E447K], IQTDGYRAPEA [UHMK1_Y197] is higher in phosphorylation enrichment: 0.578 for the first, 1.25 for the second.

First: PLRPDYQEPSR [DDR2_Y481]
Second: LTPVKYLLSAT [GSDMC_Y26]
The phosphorylation enrichment of the first is higher: 1.02 for the first, 0.433 for the second.

First: KSAAIYNPVIY [RHO_Y301]
Second: GIVEDYRPTFY [ACVRL1_Y421_P424T]
The phosphorylation enrichment of the first is lower: 0.573 for the first, 0.661 for the second.

Compared with TSNQEYLFLSM [FGFR1_Y766_D768Y_YF], SGFESYGSSSY [RPA2_Y9] is lower in phosphorylation enrichment: 1.06 for the first, 0.821 for the second.

First: DNPAKYFILES [DPP10_Y512]
Second: NPPGMYPVTGP [LPP_Y346]
The phosphorylation enrichment of the first is higher: 0.955 for the first, 0.482 for the second.

First: TEDAEYDVQSK [PTCHD3_Y335_P333A]
Second: FDDIAYIQKTL [PIK3CA_Y1021_R1023Q]
The phosphorylation enrichment of the first is higher: 1.07 for the first, 0.952 for the second.

Compared with PSAELYSFALP [PDGFRB_Y716_N718Y_YF], EQQRAYLEGTC [HLA-C_Y183_L180Q] is lower in phosphorylation enrichment: 1.03 for the first, 0.93 for the second.

Compared with MIRSAYALRGL [CPS1_Y590_G593R], IGMIIYFARKA [VCAM1_Y718] is higher in phosphorylation enrichment: 0.543 for the first, 0.88 for the second.

First: CGQDPCIRELG [UROS_Y19_Y19C]
Second: SVTCTYSPALD [TP53_Y126_N131D]
The phosphorylation enrichment of the first is lower: 0.821 for the first, 1.51 for the second.

Compared with RGGDSYGGPPR [RBMX_Y190_R187G], WHHTFYNELRV [ACTA1_Y93] is higher in phosphorylation enrichment: 0.43 for the first, 0.783 for the second.

Compared with SSREGYVSHHN [FAM83B_Y433], ASTHIYQIMNH [ITK_Y588_V587I] is lower in phosphorylation enrichment: 0.48 for the first, 0.469 for the second.

First: SSQTVYQRVEG [TFR2_Y23]
Second: PEADKYCLTYA [FGG_Y300_R301C]
The phosphorylation enrichment of the first is lower: 0.596 for the first, 1.38 for the second.

Compared with QSMEPYTKQQL [STAT3_Y640_V637M], CTTIHYNYTCN [TP53_Y234_M237T] is lower in phosphorylation enrichment: 0.736 for the first, 0.726 for the second.

Going from LKVQVYILGRE [ASS1_Y359_G356V] to ANNQRYAFMPL [TMEM87B_Y460], the phosphorylation enrichment falls from 3.33 to 0.621.

For SVVVPYEPPEF [TP53_Y220_V225F], the phosphorylation enrichment was 0.993.
